Data set [1] in a line: Plasma clearance in rabbit of 125I-labeled protein. To be noted: for Clearance (%) alpha phase: fraction cleared through alpha phase; for Clearance (%) beta phase: fraction cleared through beta phase; for Clearance (%) gamma phase: fraction cleared through gamma phase; for T1/2 alpha / T1/2 beta / T1/2 gamma: plasma clearance, ear vein injection.
Description: (§1) The following methods can be used to evaluate the pharmacokinetics (PK) of proteins such as poly-PEGylated proteins in animals, e.g., mice and rabbits. The protein to be tested is labeled with iodine (^125I) using the iodogen method (Pierce). The reaction tube is rinsed with reaction buffer (25 mM Tris, 0.4 M NaCl, pH 7.5). The tube is emptied and then replaced with 0.1 ml of reaction buffer and 12 μl of carrier free iodine-126, about 1.6 mCi. After six minutes, the activated iodine is transferred to a tube containing the protein to be tested. After nine minutes, the reaction is terminated with 25 μl of saturated tyrosine solution. The reaction can be purified on a 5 ml D-salt polyacrylamide 6000 column in Tris/NaCl. HSA can be used to minimize sticking to the gel.
(§2) For rabbits, the material is injected into the ear vein. Samples can be collected at 0, 7, 15, 30, 90 minutes, 4, 8, 16, 24, 48, 72, 96, 120, and 144 hours post-injection. Samples can be collected and analyzed as for mice.
(§3) Data can be fit to a bi-exponential (equation 2) or a tri-exponential (equation 3) decay curve describing “fast”, “slow”, and “slowest” phases of in vivo clearance: y=Ae^−αt+Be^−βt Equation 2 y=Ae^−αt+Be^−βt+Ce^−γt Equation 3 Where: • y=Amount of label remaining in plasma at time=t post-administration • A=Total label in “fast” clearance phase • B=Total label in “slow” clearance phase • C=Total label in “slowest” clearance phase • α=“Fast” clearance phase decay constant • β=“Slow” clearance phase decay constant • γ=“Slowest” clearance phase decay constant • t=Time post administration
(§4) The α, β, and γ phase decay constants can be converted to half-lives for their respective phases as: α Phase Half-life=0.69 (1/α) β Phase Half-life=0.69 (1/β) γ Phase Half-life=0.69 (1/γ)
(§5) In the case where the data are fit using the bi-exponential equation, the percentages of the total label cleared from in vivo circulation through the α and β phases are calculated as: % α Phase=[A/(A+B)]×100 % β Phase=[B/(A+B)]×100
(§6) In the case where the data are fit using the tri-exponential equation, the percentages of the total label cleared from in vivo circulation through the α and β phases are calculated as: % α Phase=[A/(A+B+C)]×100 % β Phase=[B/(A+B+C)]×100 % γ Phase=[C/(A+B+C)]×100
A short description of data set [2]: Plasma clearance in mice of 125I-labeled protein. To be noted: for Clearance (%) alpha phase: fraction of label cleared through alpha phase; for Clearance (%) beta phase: fraction of label cleared through beta phase; for T1/2 alpha / T1/2 beta: plasma clearance, tail vein injection.
Description: (§7) The protein to be tested is labeled with iodine (^125I) using the iodogen method (Pierce). The reaction tube is rinsed with reaction buffer (25 mM Tris, 0.4 M NaCl, pH 7.5). The tube is emptied and then replaced with 0.1 ml of reaction buffer and 12 μl of carrier free iodine-126, about 1.6 mCi. After six minutes, the activated iodine is transferred to a tube containing the protein to be tested. After nine minutes, the reaction is terminated with 25 μl of saturated tyrosine solution. The reaction can be purified on a 5 ml D-salt polyacrylamide 6000 column in Tris/NaCl. HSA can be used to minimize sticking to the gel.
(§8) A sufficient number of mice (about 36) are obtained. The weight of each animal is recorded. In the case of mice, the animals are injected in the tail vein with about 5 μg of the protein to be tested. Samples are recovered at each time point per animal, with four animals per time point, at approximately 0, 7, 15, 30, and 90 minutes, 4 hours, 8 hours, 16 hours, and 24 hours post injection. Samples (about 0.5 ml) are collected into anti-coagulant (0.02 ml EDTA). Cells are spun down and separated from plasma/serum. Samples can be analyzed by radiation counting and SEC peptide column on HPLC with inline radiation detection.
as §3, §4, §5, §6
Data set [3] in a line: Allometric extrapolation of clearance to humans. In kind it is in vivo. To be noted: 70 Kg human. The text has this:
The data were plotted using a double 4-parameter exponential decay.

The nature of data set [4]: Solubility upon dilution in Hepes buffer for the PEGylation reaction. In kind it is physicochemical. To be noted: stock ~10 mg/ml diluted 1:1 with 0.2M Hepes, pH 7.8-8.5. On the procedure: • mPEG-SPA, MW 5,000 Da, NEKTAR Therapeutics, cat. no.: 2M4M0H01 (succinimidyl ester of methoxy-capped polyethylene glycol propionic acid) • DX-88 API, MW 7,054 Da, ˜10 mg/ml in PBS, pH 7.0 • DX-890 API, MW 6,231 Da, ˜10 mg/ml in 10 mM NaAc, pH 3.0 • DX-1000 API, MW 7,167 Da, ˜10 mg/ml in PBS, pH 7.0 • 0.2-0.3M Hepes, pH 7.8-8.5 • 1M Tris, pH8.0 • 1N HCl PEGylation Reaction I: • 1) Calculate the amount of PEG needed for reacting the Kunitz domain polypeptide at approximately 10:1 molar ratio of PEG:reactive group. For example, DX-890 has 5 total reactive groups, so a 50:1 molar ratio of PEG:DX-890 is used. Depending upon the Kunitz domain polypeptide and/or reaction conditions, a ratio of 25:1 to 50:1 is typically used. For example, for PEGylating 10 mg of DX-890 (MW 6,231 Da) at a 50:1 molar ratio of PEG:peptide, 401 mg of PEG (MW 5,000 Da) would be used. • 2) Just prior to reacting the Kunitz domain polypeptide with the PEG, dilute the required volume of Kunitz domain polypeptide stock 1:1 with 0.2M Hepes, pH 7.8-8.5 buffer. The peptide stock is typically ˜10.0 mg/ml. Therefore upon dilution, the concentration of the Kunitz domain polypeptide is ˜5.0 mg/ml in 0.1M Hepes, pH 7.8-8.5 buffer. […] Reaction times can be chosen to minimize precipitation. • 3) Immediately add the 1:1 diluted Kunitz domain polypeptide solution directly to the PEG powder and quickly dissolve the PEG by vortexing. Once completely dissolved, cap the tube, wrap in foil and allow to react while slowly rocking/tumbling for 2.5-3 hours at 2-8° C. to 25° C. • 4) Quench the reaction by adding 1/9th. volume of 1 M Tris, pH 8.0 for 30-60 minutes at 2-8° C. to 25° C. while slowly rocking/tumbling. • 5) Carefully and slowly adjust the pH of the quench reaction mixture to ˜ pH 7 with small additions of 1N HCl while mixing. • 6) The neutralized reaction can be stored at 2-8° C. or frozen at −20° C. to −80° C. until purification. The direct addition of the Kunitz domain polypeptide solution to PEG powder can help simplify the number of steps in the reaction process and reduce hydrolysis prior to reaction.

A short description of data set [5]: Acute and subchronic 4-week studies of aerosolised DX-890 in cynomolgus monkeys. It is filed as in vivo.
The conditions of data set [6]: mouse, in vivo.
Description: as §7, §8, §3, §4, §5, §6
For data set [7] the following is noted: rabbit, in vivo.
Description: as §1, §2, §3, §4, §5, §6
The target of data set [8] is T1, hNE of sputum from cystic fibrosis children (Homo sapiens, UniProt P08246).
T1 construct: hNE of sputum from cystic fibrosis children; from tissue; host or cells: sputum from cystic fibrosis children
T1 sequence (P08246 30-247 limits assumed): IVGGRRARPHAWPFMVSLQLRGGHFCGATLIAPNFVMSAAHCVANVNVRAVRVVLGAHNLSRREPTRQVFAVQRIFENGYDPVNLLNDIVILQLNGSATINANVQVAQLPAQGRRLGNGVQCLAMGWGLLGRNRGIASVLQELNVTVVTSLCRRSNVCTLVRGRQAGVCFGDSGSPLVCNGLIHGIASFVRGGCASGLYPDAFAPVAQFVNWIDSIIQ
The note with it: in vitro, ex vivo and in vivo pharmacological studies (Delacourt et al. 2002); cited from earlier work.

Data set [9] is described as follows: Clinical studies in healthy human volunteers, inhalation at 8 increasing doses. The note with it: inhaled mass up to about 72 mg. In kind it is in vivo.
The nature of data set [10]: Resistance to oxidative and proteolytic inactivation. In kind it is physicochemical. The text has this:
DX-890 is derived from the second Kunitz-type domain of inter-α-inhibitor protein (ITI-D2) and can be produced by fermentation in Pichia pastoris. It includes 56 amino acids, with a predicted MW of 6,237 Daltons.

A short description of data set [11]: 14-day daily nebulization in 12 healthy volunteers. In kind it is in vivo, human. The procedure: It is possible, for example, to deliver DX-890 to the lung by nebulization. DX-890 activity was detected in broncho-alveolar lavages of volunteer inhaling nebulized DX-890. 12 healthy volunteers received during 14 days a single daily dose of DX-890, by nebulization lasting 5 or 20 minutes, corresponding to estimated inhaled mass of 3.75 or 15 mg respectively. […] No clinical or biological abnormalities were observed.

Where [12] appears, read: allometric extrapolation from mice and rabbits.
The mark [13] stands for this setting: allometric extrapolation, restated in days.
The mark [14] stands for this setting: 12 healthy volunteers, 14 days single daily dose, nebulization, inhaled mass 3.75 or 15 mg.

This is an account of results in patent US7550427B2, “Poly-pegylated protease inhibitors” (Dyax Corp., priority 2003, dated 2009).

Like-named read-outs stand apart in the source and are kept apart here. Where no end group is shown, it is not given here.

On to “4 × PEG5-DX-1000: DX-1000 with four attached 5 kDa PEG moieties (4×5 kDa PEG/peptide) (MHSFCAFKAETGPCRARFDRWFFNIFTRQCEEFIYGGCEGNQNRFESLEECKKMCTRD; not fully specified; cysteine pairing not given here; also: four attached 5 kDa PEG moieties (4×5 kDa PEG/peptide))”, for which, in data set [1], the “Clearance (%) alpha phase” value is 34%, the “Clearance (%) beta phase” value was determined as 32%, the “Clearance (%) gamma phase” value stood at 34% and the “T1/2 alpha” value amounted to 1.9 min. In data set [1], the “T1/2 beta” value came out at 3 h and the “T1/2 gamma” value was found to be 69.3 h. Also, in [2], the “Clearance (%) alpha phase” value was 38%, the “Clearance (%) beta phase” value came out at 62%, the “T1/2 alpha” value is 0.3 h and the “T1/2 beta” value was found to be 12.5 h. Besides, in data set [3] (setting [12]), the “Extrapolated long half life clearance phase” value is 210 h. The “Extrapolated long half life clearance phase” value in data set [3] (setting [13]) is “about 9 days”.

For “5 × PEG5-DX-890: modified DX-890 with five attached 5 kDa PEG moieties (mPEG-SPA) (EACNLPIVRGPCIAFFPRWAFDAVKGKCVLFPYGGCQGNGNKFYSEKECREYCGVP; not fully specified; cysteine pairing not given here; also: five attached 5 kDa PEG moieties (mPEG-SPA))”, in data set [1], the “Clearance (%) alpha phase” value is 28%, the “Clearance (%) beta phase” value came out at 34%, the “Clearance (%) gamma phase” value was 38% and the “T1/2 alpha” value turned out to be 2.8 min. Further, in [1], the “T1/2 beta” value was found to be 4.5 h and the “T1/2 gamma” value was determined as 97.6 h. For the same substance, in data set [2], the “Clearance (%) alpha phase” value is 33%, the “Clearance (%) beta phase” value came out at 67%, the “T1/2 alpha” value was 1.1 h and the “T1/2 beta” value is 20.2 h. Also, the “Extrapolated long half life clearance phase” value in data set [3] (setting [12]) was 330 h. The “Extrapolated long half life clearance phase” value in [3] (setting [13]) is “about 14 days”.

In the case of “DX-88: a kallikrein inhibitor, a Kunitz domain with three available lysines (SEQ ID NO:24) (EAMHSFCAFKADDGPCRAAHPRWFFNIFTRQCEEFIYGGCEGNQNRFESLEECKKMCTRD; Synthetically generated peptide)”, the Solubility upon dilution result in [4] was “relatively stable in terms of solubility upon dilution”.

On to “DX-890: 56-amino-acid Kunitz domain (SEQ ID NO:23) derived from ITI-D2; inhibitor of human neutrophil elastase (EACNLPIVRGPCIAFFPRWAFDAVKGKCVLFPYGGCQGNGNKFYSEKECREYCGVP; Synthetically generated peptide)”, for which the “Clinical or biological toxicity, histopathological lesions” value in data set [5] is “no signs of clinical or biological toxicity”. Besides, in data set [4], the Solubility upon dilution entry is reported as “may precipitate over time”. Further, in [6], the “T1/2 alpha” value was 1.3 min and the “T1/2 beta” value is 0.987 h. In data set [7], the “T1/2 alpha” value amounted to 1.7 min and the “T1/2 beta” value is 3.4 h. Also, in [1], the “Clearance (%) alpha phase” value came out at 83% and the “Clearance (%) beta phase” value was 17%. Also, in data set [2], the “Clearance (%) alpha phase” value came out at 79% and the “Clearance (%) beta phase” value turned out to be 21%. The “Effect against lesions induced by hNE of sputum from cystic fibrosis children” value in data set [8] was “protective effect”. The “Safety of administration by inhalation” value in data set [9] was “safe”. Further, in data set [3] (setting [12]), the “Extrapolated long half life clearance phase” value was 8.4 h. Further, in data set [10], the “Resistance to oxidative and proteolytic inactivation” value is “resistant to oxidative and proteolytic inactivation”. In data set [11] (setting [14]), the Adverse events entry was “no significant adverse event” and the Tolerability result is on record as “excellent”. In [11] (volunteer inhaling nebulized DX-890), the “DX-890 activity in broncho-alveolar lavages” value is “detected”.

As for “DX-1000: a human plasmin inhibitor, a Kunitz domain with three available lysines (SEQ ID NO:25) (EAMHSFCAFKAETGPCRARFDRWFFNIFTRQCEEFIYGGCEGNQNRFESLEECKKMCTRD; Synthetically generated peptide)”, the Solubility upon dilution entry in [4] is given as “relatively stable in terms of solubility upon dilution”. For the same substance, in data set [1], the “Clearance (%) alpha phase” value came to 85%, the “Clearance (%) beta phase” value worked out at 15%, the “T1/2 alpha” value stood at 0.9 min and the “T1/2 beta” value was 1 h. Besides, in data set [2], the “Clearance (%) alpha phase” value was 87%, the “Clearance (%) beta phase” value is recorded as 13%, the “T1/2 alpha” value amounted to 0.025 h and the “T1/2 beta” value was 0.448 h. Besides, the “Extrapolated long half life clearance phase” value in data set [3] (setting [12]) is 1.7 h.
